T1: full-length human recombinant IGFBP-4 (insulin-like growth factor binding protein-4) expressed in NS0 cell line, P22692
T1 chain: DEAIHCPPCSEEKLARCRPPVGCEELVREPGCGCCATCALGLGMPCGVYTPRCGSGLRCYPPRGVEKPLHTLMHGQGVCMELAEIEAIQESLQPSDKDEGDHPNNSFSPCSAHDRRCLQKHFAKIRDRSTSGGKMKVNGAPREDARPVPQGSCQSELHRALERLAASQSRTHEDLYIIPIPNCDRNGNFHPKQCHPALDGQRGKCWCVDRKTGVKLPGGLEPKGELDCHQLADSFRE

B1: atherosclerotic PAPP-A (pregnancy-associated plasma protein-A purified from human atherosclerotic coronary arteries) (protein)
chain: EARGATEEPSPPSRALYFSGRGEQLRLRADLELPRDAFTLQVWLRAEGGQRSPAVITGLYDKCSYISRDRGWVVGIHTISDQDNKDPRYFFSLKTDRARQVTTINAHRSYLPGQWVYLAATYDGQFMKLYVNGAQVATSGEQVGGIFSPLTQKCKVLMLGGSALNHNYRGYIEHFSLWKVARTQREILSDMETHGAHTALPQLLLQENWDNVKHAWSPMKDGSSPKVEFSNAHGFLLDTSLEPPLCGQTLCDNTEVIASYNQLSSFRQPKVVRYRVVNLYEDDHKNPTVTREQVDFQHHQLAEAFKQYNISWELDVLEVSNSSLRRRLILANCDISKIGDENCDPECNHTLTGHDGGDCRHLRHPAFVKKQHNGVCDMDCNYERFNFDGGECCDPEITNVTQTCFDPDSPHRAYLDVNELKNILKLDGSTHLNIFFAKSSEEELAGVATWPWDKEALMHLGGIVLNPSFYGMPGHTHTMIHEIGHSLGLYHVFRGISEIQSCSDPCMETEPSFETGDLCNDTNPAPKHKSCGDPGPGNDTCGFHSFFNTPYNNFMSYADDDCTDSFTPNQVARMHCYLDLVYQGWQPSRKPAPVALAPQVLGHTTDSVTLEWFPPIDGHFFERELGSACHLCLEGRILVQYASNASSPMPCSPSGHWSPREAEGHPDVEQPCKSSVRTWSPNSAVNPHTVPPACPEPQGCYLELEFLYPLVPESLTIWVTFVSTDWDSSGAVNDIKLLAVSGKNISLGPQNVFCDVPLTIRLWDVGEEVYGIQIYTLDEHLEIDAAMLTSTADTPLCLQCKPLKYKVVRDPPLQMDVASILHLNRKFVDMDLNLGSVYQYWVITISGTEESEPSPAVTYIHGSGYCGDGIIQKDQGEQCDDMNKINGDGCSLFCRQEVSFNCIDEPSRCYFHDGDGVCEEFEQKTSIKDCGVYTPQGFLDQWASNASVSHQDQQCPGWVIIGQPAASQVCRTKVIDLSEGISQHAWYPCTISYPYSQLAQTTFWLRAYFSQPMVAAAVIVHLVTDGTYYGDQKQETISVQLLDTKDQSHDLGLHVLSCRNNPLIIPVVHDLSQPFYHSQAVRVSFSSPLVAISGVALRSFDNFDPVTLSSCQRGETYSPAEQSCVHFACEKTDCPELAVENASLNCSSSDRYHGAQCTVSCRTGYVLQIRRDDELIKSQTGPSVTVTCTEGKWNKQVACEPVDCSIPDHHQVYAASFSCPEGTTFGSQCSFQCRHPAQLKGNNSLLTCMEDGLWSFPEALCELMCLAPPPVPNADLQTARCRENKHKVGSFCKYKCKPGYHVPGSSRKSKKRAFKTQCTQDGSWQEGACVPVTCDPPPPKFHGLYQCTNGFQFNSECRIKCEDSDASQGLGSNVIHCRKDGTWNGSFHVCQEMQGQCSVPNELNSNLKLQCPDGYAIGSECATSCLDHNSESIILPMNVTVRDIPHWLNPTRVERVVCTAGLKWYPHPALIHCVKGCEPFMGDNYCDAINNRAFCNYDGGDCCTSTVKTKKVTPFPMSCDLQGDCACRDPQAQEHSRKDLRGYSHG
B2: human recombinant PAPP-A (HyTest) (protein)
chain: B1 chain

Biological target: T1, full-length human recombinant IGFBP-4 …

| Protein | PAPP-A-dependent cleavage of IGFBP-4, determined by Western blotting |
| --- | --- |
| B1 | Atherosclerotic PAPP-A was shown to cleave IGFBP-4 with the same efficiency as recombinant PAPP-A |
| B2 | Atherosclerotic PAPP-A was shown to cleave IGFBP-4 with the same efficiency as recombinant PAPP-A |
